Experiments:
PBMCs from CLL patients = assay: In vitro cultures and cell-depletion assays from CLL samples (PBMCs); format: cell-based, human; conditions: etanercept 10 μg/ml, 24 h; 3 out of 4 samples
Procedure: Statistically significant differences were calculated using the Student t test. *p<0.05 • (C) hCD19+ CDS+ depletion after 24 h treatment (n=3) with 100 μM, 500 μM, 1000 μM of clodrolip, with (black bar) or without (white bar) etanercept (10 n/ml) was calculated by the following formula: 100−% remaining cells, where % remaining cells=(Absolute number in treated samples/Absolute number in untreated samples)×100. (*p<0.05), Student's t test. • (D) hCD19+ CDS+ depletion after 24 h treatment (n=3) with clodrolip 1000 μM, with (black bar) or without (white bar) blocking anti-TRAIL-R2 moAb (1 μg/ml) was calculated by the following formula: 100−% remaining cells, where % remaining cells=(Absolute number in treated samples/Absolute number in untreated samples)×100.
Fresh PBMCs from untreated CLL patients were seeded, as triplicates, at 3×10^6 cells/ml in culture medium and treated with clodrolip or PBS liposomes (100, 500, 1000 μM) for 30 min and 24 h, in presence or absence of etanercept (10 μg/ml), a TNF-α antagonist from Pfizer or anti-TRAIL-R2 (human, 1 μg/ml) moAb (HS201) from Adipogen AG. […] The specific percentage of remaining leukemic CD19+CD5+ or CD14+ cells in treated samples was calculated as (absolute number in treated samples/absolute number in control samples)×100. […]

MEC1 cells = assay: CLL xeno-transplantation system: MEC1 cells i.v. in Rag2−/−γc−/− mice; format: in vivo
Procedure: FIG. 4 Anti-leukemic effect of anti-CSF1R moAb in the CLL xeno-transplantation system. • (A-B-C-D-E) i.v. MEC1 challenged (day 0) Rag2^−/−γc^−/− mice were treated i.v. (day +11, +25) with 30 mg/Kg of anti-CSF1R moAb (n=3, white circles) or left untreated (n=4, black circles) and killed at day 27 (A). The mean value of the absolute number of CD11b+ F4/80+ cells gated on CD45+ in SP (B) and BM (C) is shown in graphs. The mean value of the absolute number of human CD19+ cells in the BM is shown in graph (D). The mean value of the absolute number of human CD19+ cells and of Ann-PI+ cells gated on hCD19+ cells in SP is shown in graphs (E). Data are from one representative experiment of three. Statistical analysis: *p<0.05, **p<0.01, Student's t test. (F-G-H-I) i.v. MEC1 challenged (day 0) Rag2^−/−γc^−/− mice were treated i.v. (day +11, +25) with 30 mg/Kg of anti-CSF1R moAb) (n=7, white circles) or left untreated (n=7, black circles) and killed at days 27 and 29, 48 h and 96 h after the last moAb injection (F). The mean value of the absolute number of human CD19+ cells and of Ann-PI+ cells gated on hCD19+ cells in SP at days 27, 29 is shown in graphs (G). […]
FIG. 5 Anti-leukemic effect and survival impact of anti-CSF1R moAb in the CLL xeno-transplantation system. • (A-B-C) i.v. MEC1 challenged (day 0) Rag2^−/−γc^−/− mice were treated i.v. (day +11, +25) with 30 mg/Kg of anti-CSF1R moAb (n=3, white circles) or left untreated (n=4, black circles) and killed at day 27 (A). […] Statistically significant differences were calculated using the Student t test. **p<0.01, ***p<0.001. (D-E) i.v. MEC1 challenged (day 0) Rag2^−/−γc^−/− mice were left untreated (n=10, black circles) or treated with: 30 mg/Kg i.v. of anti-CSF1R moAb (n=11, white circles; day +11, +25); or 30 mg/Kg i.p. of anti-CD20 moAb GA101 (n=10, blue circles; day +11, +25); or 30 mg/Kg i.p. of anti-CD20 moAb GA101 (day +11, +25)+30 mg/Kg i.v. of anti-CSF1R moAb (day +18, +32) (n=10, violet circles) and monitored for survival (D). […]

[1] = target: human wildtype CSF-1R (wt CSF-1R) (human, UniProt P07333 20-972); assay: cell-based or functional assay
[2] = target: human mutant CSF-1R L301S Y969F (human) (UniProt P07333); assay: cell-based or functional assay

etanercept
effect on leukemic cell depletion induced by clodrolip (TNF blocked) (PBMCs from CLL patients): reduced | effect on anti-leukemic effect of CSF1R moAb in the SP (MEC1 cells; etanercept 10 mg/Kg i.p. from day +10, CSF1R moAb 30 mg/Kg i.v. days +11, +25, day 29): abrogated | effect on clodrolip-induced leukemic cell depletion in the BM (MEC1 cells; etanercept 10 mg/Kg i.p. from day +10, clodrolip 60 μl i.v. days +11, +25, day 26): abated

Anti CSF-1R SC 2-4A5 (Santa Cruz Biotechnology, US) (antibody)
wtCSF-1R IC30 (30 percent inhibition of cell viability, CellTiterGlo, 3D spheroid culture) [1]: 16.6 µg/mL | Mutant CSF-1R IC30 (30 percent inhibition of cell viability, CellTiterGlo, 3D spheroid culture) [2]: 2.56 µg/mL

GA101: glycoengineered humanized B-Ly1 antibody BHH6-B-KV1 GE, type II anti-human CD20
survival of mice, p vs untreated control (Log-Rank test) (MEC1 cells; 30 mg/Kg each, single agents days +11, +25, combination GA101 days +11, +25 + anti-CSF1R days +18, +32): 0.006

goat polyclonal anti-CSF-1R antibody ab10676 (abcam)
wtCSF-1R IC30 (30 percent inhibition of cell viability, CellTiterGlo, 3D spheroid culture) [1]: 14.2 µg/mL | Mutant CSF-1R IC30 (30 percent inhibition of cell viability, CellTiterGlo, 3D spheroid culture) [2]: > 20 µg/mL | Mutant CSF-1R: inhibition of cell viability at 20 µg/ml [2]: 0%
